Values quoted from earlier work as cited in patent US11173109B2, “Compositions in the form of an injectable aqueous solution comprising amylin, an amylin receptor agonist or an amylin analog and a co-polyamino acid” (ADOCIA, priority 2017, dated 2021).
No end group written: not given here.

Settings: neutral pH

amylin: peptide of 37 amino acids which is co-stored and co-secreted with insulin (KCNTATCATQRLANFLVHSSNNFGAILSSTNVGSNTY; not fully specified (C-terminus, bridges); cysteine pairing not given here; UniProt P10997 34-70, looked up)
time for which amylin is stable: less than one
